Residue numbers refer to the chain shown, from its start. Numbers in names are those of the source.
T1: FcgRIIb (human, UniProt P31994 43-217)
T1 construct: extracellular domain; also called FcγRIIb; CD32B; not shown: His tag attached to the C terminus
T1 sequence (looked up): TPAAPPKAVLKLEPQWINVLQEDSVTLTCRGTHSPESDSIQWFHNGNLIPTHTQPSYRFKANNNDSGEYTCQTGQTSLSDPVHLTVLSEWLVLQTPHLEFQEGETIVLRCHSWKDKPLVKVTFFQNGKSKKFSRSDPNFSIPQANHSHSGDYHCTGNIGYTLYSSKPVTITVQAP

T2: FcgRIIaH (human, UniProt P12318 34-217)
T2 construct: extracellular domain; Allotype H131; also called FcγRIIa H; FcgRIIa type H; not shown: His tag attached to the C terminus
T2 sequence (looked up): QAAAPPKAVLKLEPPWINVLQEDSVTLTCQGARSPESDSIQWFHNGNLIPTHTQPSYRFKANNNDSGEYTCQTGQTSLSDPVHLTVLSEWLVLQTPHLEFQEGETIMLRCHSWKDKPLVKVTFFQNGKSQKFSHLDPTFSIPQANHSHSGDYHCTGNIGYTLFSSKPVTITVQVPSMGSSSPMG

T3: FcgRIIaR (human, UniProt P12318 34-217)
T3 construct: extracellular domain; Allotype R131; also called FcγRIIa R; FcgRIIa type R; not shown: His tag attached to the C terminus
T3 sequence (looked up): T2 sequence (looked up) with H134R

B1: H240-Kn120/H240-Hl068/L73-k0 (antibody, human IgG1, kappa)
heavy 1: QDQLVQSGAEVKKPGASVKVSCKASGFNIKDTYIQWVRQAPGQGLEWMGRIDPLRKQTKYREKFEGRVTITADTSTNTAYMELSSLRSEDTAVYYCVRSGREFDYWGQGTLVTVSSASTKGPSVFPLAPSSKSTSGGTAALGCLVKDYFPEPVTVSWNSGALTSGVHTFPAVLQSSGLYSLSSVVTVPSSSLGTQTYICNVNHKPSNTKVDKKVEPKSCDKTHTCPPCPAPEYYWGPMVFLFPPKPKDTLMISRTPEVTCVVVDVSDEDPEVKFNWYVDGVEVHNAKTKPREEQYNATYRVVSVLTVLHQDWLNGKEYKCKVSNKDLPAPIEKTISKAKGQPREPQVCTLPPSRDELTKNQVSLWCLVKGFYPSDIAVEWESNGQPENNYKTTPPVLDSDGSFFLYSKLTVDKSRWQQGNVFSCSVMHEALHNHYTQKSLSLSP
heavy 2: QDQLVQSGAEVKKPGASVKVSCKASGFNIKDTYIQWVRQAPGQGLEWMGRIDPLRKQTKYREKFEGRVTITADTSTNTAYMELSSLRSEDTAVYYCVRSGREFDYWGQGTLVTVSSASTKGPSVFPLAPSSKSTSGGTAALGCLVKDYFPEPVTVSWNSGALTSGVHTFPAVLQSSGLYSLSSVVTVPSSSLGTQTYICNVNHKPSNTKVDKKVEPKSCDKTHTCPPCPAPELLGGPSVFLFPPKPKDTLMISRTPEVTCVVVDVSHEEPEVKFNWYVDGVEVHNAKTKPREEQYNSTYRVVSVLTVLHQDWLNGKEYKCKVSNDALPKPIEETISKAKGQPREPQVYTLPPSRCELTKNQVSLSCAVKGFYPSDIAVEWESNGQPENNYKTTPPVLDSDGSFFLVSKLTVDKSRWQQGNVFSCSVMHEALHNHYTQKSLSLSP
light: DIQMTQSPSSLSASVGDRVTITCRASQDIHKYIAWYQQKPGQAPRLLIQYTSTLQPGVPSRFSGSGSGTDYTFTISSLQPEDIATYYCLQYEQLRTFGGGTKVEIKRTVAAPSVFIFPPSDEQLKSGTASVVCLLNNFYPREAKVQWKVDNALQSGNSQESVTEQDSKDSTYSLSSTLTLSKADYEKHKVYACEVTHQGLSSPVTKSFNRGEC
notes: Heterodimerized (knobs-into-holes) anti-epiregulin IgG1 antibody
B2: H240-Kn120/H240-Hl170/L73-k0 (antibody, human IgG1, kappa)
heavy 1: B1 heavy 1
heavy 2: B1 heavy 2 with L327A
light: B1 light
notes: Heterodimerized anti-epiregulin IgG1 antibody; L328A in H240-Hl068
B3: H240-Kn120/H240-Hl150/L73-k0 (antibody, human IgG1, kappa)
heavy 1: B1 heavy 1
heavy 2: B1 heavy 2 with I331T
light: B1 light
notes: Heterodimerized anti-epiregulin IgG1 antibody; I332T in H240-Hl068
B4: GpH7-A53/GpH7-B78/GpL16-k0 (antibody, human IgG1, kappa)
heavy 1: QVQLVQSGAEVKKPGASVTVSCKASGYTFTDYEMHWIRQPPGEGLEWIGAIDPKTGDTAYSESFQDRVTLTADKSTSTAYMELSSLTSEDTAVYYCTRFYSYTYWGQGTLVTVSSASTKGPSVFPLAPSSKSTSGGTAALGCLVKDYFPEPVTVSWNSGALTSGVHTFPAVLQSSGLYSLSSVVTVPSSSLGTQTYICNVNHKPSNTKVDKKVEPKSCDKTHTCPPCPAPELLGGPDVFLFPPKPKDTLMISRTPEVTCVVVDVSHEDPEVKFNWYVDGVEVHNAKTKPREEQYNSTYRVVSVLTVLHQDWLNGKEYKCKVSNKALPAPIEKTISKAKGQPREPQVYTLPPSRKELTKNQVSLTCLVKGFYPSDIAVEWESNGQPENNYKTTPPVLDSDGSFFLYSKLTVDKSRWQQGNVFSCSVMHEALHNRYTQKSLSLSP
heavy 2: B4 heavy 1 with A328L, I330E, K354D, R433H, K437E
light: DIVMTQSPLSLPVTPGEPASISCQASESLVHSNRNTYLHWYLQKPGQSPQLLIYKVSNRFSGVPDRFSGSGSGTDFTLKISRVEAEDVGVYYCSQNTHVPPTFGQGTKVEIERTVAAPSVFIFPPSDEQLKSGTASVVCLLNNFYPREAKVQWKVDNALQSGNSQESVTEQDSKDSTYSLSSTLTLSKADYEKHKVYACEVTHQGLSSPVTKSFNRGEC
notes: S239D in one H chain, S239D/A330L/I332E in the other
B5: GpH7-TA7/GpH7-B78/GpL16-k0 (antibody, human IgG1, kappa)
heavy 1: B4 heavy 1 with L232Y, G234W, D237S, S296A
heavy 2: B4 heavy 1 with A328L, I330E, K354D, R433H, K437E
light: B4 light
notes: L234Y/G236W/S298A in one H chain, S239D/A330L/I332E in the other
B6: GpH7-A5/GpH7-HA15/GpL16-k0 (antibody, human IgG1, kappa)
heavy 1: not shown
heavy 2: B4 heavy 1 with D237S, P327R, A328L, K354D, R433H, K437E
light: B4 light
notes: Anti-glypican-3 IgG1 heterodimer; A330L and P329R in H2
B7: GpH7-A48/GpH7-B3-06-09D/GpL16-k0 (antibody, human IgG1, kappa)
heavy 1: B4 heavy 1 with D237S, P327R
heavy 2: not shown
light: B4 light
notes: Anti-glypican-3 IgG1 heterodimer; P329R in H1, S239D in H2
B8: GpH7-A48/GpH7-B3-22-10E/GpL16-k0 (antibody, human IgG1, kappa)
heavy 1: B4 heavy 1 with D237S, P327R
heavy 2: not shown
light: B4 light
notes: Anti-glypican-3 IgG1 heterodimer; P329R in H1, I332E in H2
B9: GpH7-A48/GpH7-B3-15-02A/GpL16-k0 (antibody, human IgG1, kappa)
heavy 1: B4 heavy 1 with D237S, P327R
heavy 2: not shown
light: B4 light
notes: Anti-glypican-3 IgG1 heterodimer; P329R in H1, S298A in H2
B10: GpH7-A48/GpH7-B3-01-15Y/GpL16-k0 (antibody, human IgG1, kappa)
heavy 1: B4 heavy 1 with D237S, P327R
heavy 2: not shown
light: B4 light
notes: Anti-glypican-3 IgG1 heterodimer; P329R in H1, L234Y in H2
B11: GpH7-A5/GpH7-HA18/GpL16-k0 (antibody, human IgG1, kappa)
heavy 1: not shown
heavy 2: B4 heavy 1 with D237S, P327R, I330E, K354D, R433H, K437E
light: B4 light
notes: Anti-glypican-3 IgG1 heterodimer; I332E and P329R in H2
B12: GpH7-A48/GpH7-B3-20-08L/GpL16-k0 (antibody, human IgG1, kappa)
heavy 1: B4 heavy 1 with D237S, P327R
heavy 2: not shown
light: B4 light
notes: Anti-glypican-3 IgG1 heterodimer; P329R in H1, A330L in H2
B13: GpH7-A48/GpH7-B3-03-20W/GpL16-k0 (antibody, human IgG1, kappa)
heavy 1: B4 heavy 1 with D237S, P327R
heavy 2: not shown
light: B4 light
notes: Anti-glypican-3 IgG1 heterodimer; P329R in H1, G236W in H2

Molecular target: T1, FcgRIIb
Experiment: SPR (Biacore); KD of H240-Kn120/H240-Hl068/L73-k0 divided by KD of the sample
Method: (§1) Analysis of interaction between objective antibody and the FcγR was carried out using Biacore T100 (GE Healthcare), Biacore T200, Biacore A100, and Biacore 4000. HBS-EP+ (GE Healthcare) was used as the running buffer, and the measurement temperature was set to 25° C. Chips produced by immobilizing the antigen peptide by the amine coupling method to a Series S sensor Chip CM5 (GE Healthcare), chips produced by allowing preliminarily biotinylated antigen peptides to interact with and immobilize onto a Series S Sensor Chip SA (certified) (GE Healthcare), chips produced by immobilizing Protein L (ACTIGEN, BioVision) to Series S Sencor Chip CM5 (GE Healthcare), or chips produced by immobilizing Protein A/G (Thermo Scientific) to Series S Sencor Chip CM5 (GE Healthcare) were used. Antibodies of interest were captured onto these chips, and allowed to interact to each FcγR diluted with running buffer. To regenerate and repeatedly use the chip, the antibodies captured onto the chip were washed off by reacting 10 mM glycine-HCl, pH 1.5.

relative KD | Binder
1 | B1
2.2 | B2
1.5 | B3

Molecular target: T4, FcgRIa (human, UniProt P12314 16-292)
T4 construct: extracellular domain; Soluble extracellular domain expressed in FreeStyle293 cells; also called FcγRIa; FcγRI; not shown: His tag attached to the C terminus
Experiment: as above
Method: as §1

T4 sequence (P12314 16-292): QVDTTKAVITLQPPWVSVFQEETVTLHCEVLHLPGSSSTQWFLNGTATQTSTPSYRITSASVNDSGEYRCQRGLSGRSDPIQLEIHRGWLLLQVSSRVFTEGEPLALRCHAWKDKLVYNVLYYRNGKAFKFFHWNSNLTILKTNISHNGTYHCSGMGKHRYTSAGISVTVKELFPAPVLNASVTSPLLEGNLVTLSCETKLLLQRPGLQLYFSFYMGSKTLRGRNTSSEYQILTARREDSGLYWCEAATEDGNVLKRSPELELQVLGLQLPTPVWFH

relative KD | Binder
1 | B1
0.8 | B2
0.4 | B3

Molecular target: T2, FcgRIIaH
Experiment: as above
Method: as §1

relative KD | Binder
1 | B1
2.3 | B2
1.2 | B3

Molecular target: T5, FcgRIIIaV (human, UniProt P08637 17-208)
T5 construct: extracellular domain; Allotype V158; also called FcγRIIIa V; not shown: His tag attached to the C terminus
Experiment: as above
Method: as §1

T5 sequence (P08637 17-208 F176V limits assumed): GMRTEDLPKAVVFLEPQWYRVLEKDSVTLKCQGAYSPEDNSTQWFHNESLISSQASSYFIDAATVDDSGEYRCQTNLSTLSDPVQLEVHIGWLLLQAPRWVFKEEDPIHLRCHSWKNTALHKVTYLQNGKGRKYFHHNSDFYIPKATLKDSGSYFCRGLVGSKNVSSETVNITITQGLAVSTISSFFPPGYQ

relative KD | Binder
1 | B1
0.4 | B2
0.6 | B3

Molecular target: T6, FcgRIIIaF (human, UniProt P08637 17-208)
T6 construct: extracellular domain; Allotype F158; also called FcγRIIIa F; not shown: His tag attached to the C terminus
Experiment: as above
Method: as §1

T6 sequence (P08637 17-208): as the sequence (P08637 17-208 F176V limits assumed) above, with V160F counted along it

relative KD | Binder
1 | B1
0.6 | B2
0.7 | B3

Molecular target: T3, FcgRIIaR
Experiment: as above
Method: as §1

relative KD | Binder
1 | B1
2.3 | B2
1 | B3

Molecular target: FcγRIIIa F (human, UniProt P08637 17-208)
Experiment: SPR (Biacore), KD

Chain of FcγRIIIa F (P08637 17-208): as the sequence (P08637 17-208 F176V limits assumed) above, with V160F counted along it

fold decrease of FcγRIIIa-binding activity against GpH7-A57/GpH7-B78/GpL16-k0 [times] | fold FcγRIIIa binding against GpH7-A5/GpH7-B78/GpL16-k0 [times] | Binder
1.8 | – | B4
– | ≥ 10 | B5

Molecular target: T7, FcγRIIIa (human, UniProt P08637 17-208)
T7 construct: extracellular domain; also called FcgRIIIa; CD16A; not shown: His tag attached to the C terminus
Experiment: SPR (Biacore), antibody captured on antigen-peptide chip, FcγR as analyte; relative binding amount
Text: The expression vectors for the respective H chains were combined in a way that each of the alterations L234Y, G236W, S298A, S239D, A330L, and I332E is present in the same H chain as P329R or in the different H chain from P329R, and the expression vector GpL16-k0 for the L chain was combined with them. Antibodies of interest were expressed and prepared according to the method described in Reference Example 1. The prepared antibodies were used to assay the FcγRIIIa-binding activity. The result of assessment using P329R on the direction of FcγRIIIa recognition by L234Y, G236W, S298A, S239D, A330L, and I332E is summarized in Table 12.
Analysis of interaction between objective antibody and the FcγR was carried out using Biacore T100 (GE Healthcare). HBS-EP+ (GE Healthcare) was used as the running buffer, and the measurement temperature was set to 25° C. Chips produced by immobilizing the antigen peptide by the amine coupling method to a Series S Sencor Chip CM5 (GE Healthcare), or alternatively, chips produced by allowing preliminarily biotinylated antigen peptides to interact with and immobilize onto a Series S Sensor Chip SA (certified) (GE Healthcare) were used. Antibodies of interest were captured onto an antigen peptide-immobilized chip, and allowed to interact to each FcγR diluted with running buffer. To regenerate and repeatedly use the chip, the antibodies captured on the chip were washed off by reacting 10 mM glycine-HCl, pH 1.5.

T7 sequence (P08637 17-208): as the sequence (P08637 17-208 F176V limits assumed) above, with V160F counted along it

FcγRIIIa BINDING ACTIVITY (relative) | Binder
32 relative, GpH7-A5/GpH7-B3/GpL16-k0 = 100 | B6
123 relative, GpH7-A5/GpH7-B3/GpL16-k0 = 100 | B7
189 relative, GpH7-A5/GpH7-B3/GpL16-k0 = 100 | B8
47 relative, GpH7-A5/GpH7-B3/GpL16-k0 = 100 | B9
11 relative, GpH7-A5/GpH7-B3/GpL16-k0 = 100 | B10
35 relative, GpH7-A5/GpH7-B3/GpL16-k0 = 100 | B11
60 relative, GpH7-A5/GpH7-B3/GpL16-k0 = 100 | B12
13 relative, GpH7-A5/GpH7-B3/GpL16-k0 = 100 | B13

— patent US20150344570A1 (published 2015)
